Results on two compounds are retold here after patent US20250288684A1, “ACETAL-TYPE RELEASABLE POLYOXYETHYLENE DERIVATIVE, PRODUCTION METHOD THEREOF AND ACETAL-TYPE RELEASABLE POLYOXYETHYLENE CONJUGATE” (NOF CORPORATION, priority 2022, published 2025).

Series [1] is described as follows: Evaluation of stability of PEGylated insulin in buffer solutions with various pH values (HPLC). In kind it is physicochemical. The settings on record: pH 6.0, 7.0, 8.0 and 9.0 buffer solutions, 25° C. The protocol:
With 100 μL of 100 mM phosphate buffer solution (pH 6.0), 100 μL of 100 mM phosphate buffer solution (pH 7.0), 100 μL of 100 mM ammonium formate buffer solution (pH 8.0), or 100 μL of 100 mM ammonium formate buffer solution (pH 9.0), 100 μL of 0.5 mg/mL PEG(20k)-OCO-NH-insulin prepared in Comparative Example 4 or 100 μL of 0.5 mg/mL 2MPEG(20k)-OCO-NH-insulin prepared in Example 26 was mixed, and then allowed to stand at 25° C. and subjected to HPLC analysis at a random timing.

Series [2] can be described thus: Degradability test: decomposition in deuterium oxide buffer solution, NMR measurement. In kind it is physicochemical. The settings on record: pH 7.4; sodium phosphate deuterium oxide buffer solution, pD 7.4, 40° C.; β-alanine adduct amount by NMR; read-out: half-life (t½) (converted). On the procedure:
Each of the compounds of Formulas (50), (51), (52) and (53) (20 mg) was dissolved in sodium phosphate deuterium oxide buffer solution (0.7 mL) having a pD of 7.4, and then placed in a thermostatic bath at 40° C., and NMR measurement was performed at a random timing. […] A half-life (t½) was calculated from a formula (in which ln represents a logarithm with the Napier's number as a base, and λ represents a product of an exponent of the Napier's number in an approximation formula of the graph and −1) based on the approximation formula.
Each of the compounds of Formulas (75), (76), (77) and (78) (20 mg) was dissolved in sodium phosphate deuterium oxide buffer solution (0.7 mL) having a pD of 7.4, and then placed in a thermostatic bath at 40° C., and NMR measurement was performed at a random timing.

“PEG(20k)-OCO-NH-insulin: insulin reacted with SUNBRIGHT MENP-20T [reference compound]”: in series [1], the “change in amount of PEGylated insulin over time” value is reported as “no decrease”.
The term half-life denotes how long it takes for the measured level to halve. `COCCOc1cccc(C2OCc3cc(COC(=O)NCCC(=O)O)ccc3O2)c1` (centres unmarked) [Formula (53)]: the half-life at 28.6 mg/mL in series [2] is 231 days.
